What was measured:
mPgc1b promoter = test: NHR-promoter luciferase screen, mPgc1b promoter; format: cell-based, mouse; conditions: for Luc. act., normalized to lacZ / Normalized Luc. act., normalized to control: PGC1b promoter reporter, co-transfected HR, without or with its ligand; for Normalized Luc. act., normalized to control: relative to control; for luciferase activity normalized to lacZ activity and to a control, mPgc1b: mPgc1b promoter-luciferase, CV-1 cells, NHR +/- ligand, control = 1.00
In short: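 CV-1 cells co-transfected with NHR homodimer or NHR/RXR heterodimer (pcDNA3.1, C-terminal V5H6 tag), promoter-luciferase construct and LacZ transfection control. Orphan receptors screened without ligand. Luciferase normalized to LacZ and to no-NHR/no-ligand control.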

MCP-1 promoter = test: NHR-promoter luciferase screen, MCP-1 promoter; format: cell-based; conditions: for Normalized Luc. act., normalized to control / Luc. act., normalized to lacZ: MCP-1 promoter reporter; for Normalized Luc. act., normalized to control: HR without or with its ligand, relative to control; for Luc. act., normalized to lacZ: hormone receptor (HR) without or with its ligand; for mMCP-1 promoter reporter activity: transcription factor +/- ligand, control = 1.00
In short: (§1)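 CV-1 cells were co-transfected with 50 ng NHR (homodimer or NHR/RXR heterodimer), 100 ng promoter-luciferase construct and 50 ng LacZ. Luciferase was normalized to LacZ and to a no-NHR/no-ligand control.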

mADRP promoter = test: NHR-promoter luciferase screen, mADRP promoter; format: cell-based, mouse; conditions: for Luc. act., normalized to lacZ / Normalized Luc. act., normalized to control: ADRP promoter, HR/ligand component; for mADRP promoter reporter activity: transcription factor +/- ligand, control = 1.00
In short: as §1

hG6PD promoter = test: NHR-promoter luciferase screen, hG6PD promoter; format: cell-based, human; conditions: for Luc. act., normalized to lacZ / Normalized Luc. act., normalized to control: G6PD promoter reporter, co-transfected HR, without or with its ligand; for Normalized Luc. act., normalized to control: relative to control; for luciferase activity normalized to lacZ activity and to a control, hG6PD: hG6PD promoter-luciferase, CV-1 cells, NHR +/- ligand, control = 1.00
In short: as §1

hCAR promoter = test: NHR-promoter luciferase screen, hCAR promoter; format: cell-based, human; conditions: for luciferase activity normalized to lacZ activity and to a control, hCAR: hCAR promoter-luciferase, CV-1 cells, NHR +/- ligand, control = 1.00; for Luc. act., normalized to lacZ / Normalized Luc. act., normalized to control: hCAR promoter, HR/ligand component
In short: as §1

SREBP1c promoter = test: NHR-promoter luciferase screen, SREBP1c promoter; format: cell-based, mouse; conditions: for Luc. act., normalized to lacZ / Normalized Luc. act., normalized to control: SREBP1c promoter, HR component without or with ligand; for mSREBP1-c promoter reporter activity: transcription factor +/- ligand, control = 1.00
In short: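 CV-1 cells co-transfected with 50 ng NHR (homodimer or NHR/RXR heterodimer), 100 ng promoter-luciferase and 50 ng LacZ. Luciferase read at 48 h, normalised to LacZ and to a no-NHR/no-ligand control.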

Molecule | Luc. act., normalized to lacZ (mPgc1b promoter) | Normalized Luc. act., normalized to control (mPgc1b promoter) | luciferase activity normalized to lacZ activity and to a control, mPgc1b (mPgc1b promoter) | Normalized Luc. act., normalized to control (MCP-1 promoter) | Luc. act., normalized to lacZ (MCP-1 promoter) | mMCP-1 promoter reporter activity (MCP-1 promoter) | Luc. act., normalized to lacZ (mADRP promoter) | Normalized Luc. act., normalized to control (mADRP promoter) | mADRP promoter reporter activity (mADRP promoter) | Luc. act., normalized to lacZ (hG6PD promoter) | Normalized Luc. act., normalized to control (hG6PD promoter) | luciferase activity normalized to lacZ activity and to a control, hG6PD (hG6PD promoter) | luciferase activity normalized to lacZ activity and to a control, hCAR (hCAR promoter) | Luc. act., normalized to lacZ (hCAR promoter) | Normalized Luc. act., normalized to control (hCAR promoter) | Luc. act., normalized to lacZ (SREBP1c promoter) | Normalized Luc. act., normalized to control (SREBP1c promoter) | mSREBP1-c promoter reporter activity (SREBP1c promoter)
PPARd: Peroxisome proliferator activated receptor δ (NR1C2), cDNA driver (protein, UniProt Q03181 1-441, looked up) Peroxisome …: MEQPQEEAPEVREEEEKEEVAEAEGAPELNGGPQHALPSSSYTDLSRSSSPPSLLDQLQMGCDGASCGSLNMECRVCGDKASGFHYGVHACEGCKGFFRRTIRMKLEYEKCERSCKIQKKNRNKCQYCRFQKCLALGMSHNAIRFGRMPEAEKRKLVAGLTANEGSQYNPQVADLKAFSKHIYNAYLKNFNMTKKKARSILTGKASHTAPFVIHDIETLWQAEKGLVWKQLVNGLPPYKEISVHVFYRCQCTTVETVRELTEFAKSIPSFSSLFLNDQVTLLKYGVHEAIFAMLASIVNKDGLLVANGSGFVTREFLRSLRKPFSDIIEPKFEFAVKFNALELDDSDLALFIAAIILCGDRPGLMNVPRVEAIQDTILRALEFHLQANHPDAQYLFPKLLQKMADLRQLVTEHAQMMQRIKKTETETSLHPLLQEIYKDMY | 7.88 | 0.7 | 0.67 | 1.8 | 190.4 | 1.78 | 694.0 | 1.4 | 1.39 | 48.7 | 1.3 | 1.30 | 1.22 | 38.6 | 1.2 | 658.7 | 2.0 | 2.04
CAR: Constitutive Androstane Receptor (NR1I3), cDNA driver (protein, UniProt Q14994 1-352, looked up) Nuclear receptor subfamily 1 …: MASREDELRNCVVCGDQATGYHFNALTCEGCKGFFRRTVSKSIGPTCPFAGSCEVSKTQRRHCPACRLQKCLDAGMRKDMILSAEALALRRAKQAQRRAQQTPVQLSKEQEELIRTLLGAHTRHMGTMFEQFVQFRPPAHLFIHHQPLPTLAPVLPLVTHFADINTFMVLQVIKFTKDLPVFRSLPIEDQISLLKGAAVEICHIVLNTTFCLQTQNFLCGPLRYTIEDGARVSPTVGFQVEFLELLFHFHGTLRKLQLQEPEYVLLAAMALFSPDRPGVTQRDEIDQLQEEMALTLQSYIKGQQRRPRDRFLYAKLLGLLAELRSINEAYGYQIQHIQGLSAMMPLLQEICS | 9.21 | 0.8 | 0.78 | 1.1 | 115.7 | 1.08 | 623.0 | 1.3 | 1.25 | 46.4 | 1.2 | 1.24 | 0.82 | 25.9 | 0.8 | 312.9 | 1.0 | 0.97
FXR: Farnesoid X Receptor (NR1H4), cDNA driver (protein, UniProt Q96RI1 1-486, looked up) Bile acid receptor: MVMQFQGLENPIQISPHCSCTPSGFFMEMMSMKPAKGVLTEQVAGPLGQNLEVEPYSQYSNVQFPQVQPQISSSSYYSNLGFYPQQPEEWYSPGIYELRRMPAETLYQGETEVAEMPVTKKPRMGASAGRIKGDELCVVCGDRASGYHYNALTCEGCKGFFRRSITKNAVYKCKNGGNCVMDMYMRRKCQECRLRKCKEMGMLAECMYTGLLTEIQCKSKRLRKNVKQHADQTVNEDSEGRDLRQVTSTTKSCREKTELTPDQQTLLHFIMDSYNKQRMPQEITNKILKEEFSAEENFLILTEMATNHVQVLVEFTKKLPGFQTLDHEDQIALLKGSAVEAMFLRSAEIFNKKLPSGHSDLLEERIRNSGISDEYITPMFSFYKSIGELKMTQEEYALLTAIVILSPDRQYIKDREAVEKLQEPLLDVLQKLCKIHQPENPQHFACLLGRLTELRTFNHHHAEMLMSWRVNDHKFTPLLCEIWDVQ | 7.82 | 0.7 | 0.66 | 1.2 | 124.1 | 1.16 | 658.3 | 1.3 | 1.32 | 42.6 | 1.1 | 1.14 | 0.78 | 24.6 | 0.8 | 551.0 | 1.7 | 1.71
PXR: Pregnane X Receptor (NR1I2), cDNA driver (protein, UniProt O75469 1-434, looked up) Nuclear receptor subfamily 1 …: MEVRPKESWNHADFVHCEDTESVPGKPSVNADEEVGGPQICRVCGDKATGYHFNVMTCEGCKGFFRRAMKRNARLRCPFRKGACEITRKTRRQCQACRLRKCLESGMKKEMIMSDEAVEERRALIKRKKSERTGTQPLGVQGLTEEQRMMIRELMDAQMKTFDTTFSHFKNFRLPGVLSSGCELPESLQAPSREEAAKWSQVRKDLCSLKVSLQLRGEDGSVWNYKPPADSGGKEIFSLLPHMADMSTYMFKGIISFAKVISYFRDLPIEDQISLLKGAAFELCQLRFNTVFNAETGTWECGRLSYCLEDTAGGFQQLLLEPMLKFHYMLKKLQLHEEEYVLMQAISLFSPDRPGVLQHRVVDQLQEQFAITLKSYIECNRPQPAHRFLFLKIMAMLTELRSINAQHTQRLLRIQDIHPFATPLMQELFGITGS | 10.19 | 0.9 | 0.86 | 2.0 | 209.7 | 1.96 | 1021.2 | 2.1 | 2.05 | 42.5 | 1.1 | 1.14 | 1.16 | 36.5 | 1.2 | 486.8 | 1.5 | 1.51
RXRb: Retinoic X Receptor β (NR2B2), cDNA driver (protein, UniProt P28702 1-533, looked up) Retinoic acid receptor …: MSWAARPPFLPQRHAAGQCGPVGVRKEMHCGVASRWRRRRPWLDPAAAAAAAVAGGEQQTPEPEPGEAGRDGMGDSGRDSRSPDSSSPNPLPQGVPPPSPPGPPLPPSTAPSLGGSGAPPPPPMPPPPLGSPFPVISSSMGSPGLPPPAPPGFSGPVSSPQINSTVSLPGGGSGPPEDVKPPVLGVRGLHCPPPPGGPGAGKRLCAICGDRSSGKHYGVYSCEGCKGFFKRTIRKDLTYSCRDNKDCTVDKRQRNRCQYCRYQKCLATGMKREAVQEERQRGKDKDGDGEGAGGAPEEMPVDRILEAELAVEQKSDQGVEGPGGTGGSGSSPNDPVTNICQAADKQLFTLVEWAKRIPHFSSLPLDDQVILLRAGWNELLIASFSHRSIDVRDGILLATGLHVHRNSAHSAGVGAIFDRVLTELVSKMRDMRMDKTELGCLRAIILFNPDAKGLSNPSEVEVLREKVYASLETYCKQKYPEQQGRFAKLLLRLPALRSIGLKCLEHLFFFKLIGDTPIDTFLMEMLEAPHQLA | 11.7 | 1.0 | 0.99 | 0.0 | – | 0.00 | 676.1 | 1.4 | 1.36 | 23.1 | 0.6 | 0.62 | 0.95 | 30.1 | 1.0 | 544.4 | 1.7 | 1.69
